Laboratory results from publication PMC12777564, “Proposal of metagenomic-origin LRA-5 as a precursor of active β-lactamases through Tyr69Gln and Val166Glu amino acid substitutions: a functional and structural analysis” (Antimicrobial Agents and Chemotherapy, 2025).

Columns and labels:
[1] = test system: C[C@@H](O)[C@H]1C(=O)N2C(C(=O)O)=C(SCCN=CN)C[C@H]12; assay: steady-state hydrolysis kinetics with pure enzyme (Km); type: biochemical, uncultured bacterium BLR5
[2] = test system: O=C(Cc1cccs1)N[C@@H]1C(=O)N2C(C(=O)O)=C(/C=C/c3ccc([N+](=O)[O-])cc3[N+](=O)[O-])CS[C@H]12; assay: as above; type: biochemical, uncultured bacterium BLR5
[3] = test system: CC(=O)OCC1=C(C(=O)O)N2C(=O)[C@@H](NC(=O)Cc3cccs3)[C@H]2SC1; assay: as above; type: biochemical, uncultured bacterium BLR5
[4] = test system: CO/N=C(\C(=O)N[C@@H]1C(=O)N2C(C(=O)O)=C(CSc3nc(=O)c(=O)[nH]n3C)CS[C@H]12)c1csc(N)n1; assay: as above; type: biochemical, uncultured bacterium BLR5
[5] = test system: C[C@@H](O)[C@H]1C(=O)N2C(C(=O)O)=C(S[C@@H]3CN[C@H](C(=O)N(C)C)C3)[C@H](C)[C@H]12; assay: as above; type: biochemical, uncultured bacterium BLR5
[6] = test system: CC1(C)S[C@@H]2[C@H](NC(=O)[C@H](N)c3ccccc3)C(=O)N2[C@H]1C(=O)O; assay: as above; type: biochemical, uncultured bacterium BLR5
[7] = test system: O=C(Cc1cccs1)N[C@@H]1C(=O)N2C(C(=O)O)=C(/C=C/c3ccc([N+](=O)[O-])cc3[N+](=O)[O-])CS[C@H]12; assay: purified protein, by the assay type; design: steady-state beta-lactam hydrolysis kinetics with purified LRA-5; Km (apparent Km via nitrocefin competition for poor substrates); details: pH 7.5
Description: (§1) For low Km values, the kcat values were derived by complete hydrolysis time courses as described by De Meester et al. ([41]). For poor substrates that behave as competitive inhibitors, the Ki was obtained by monitoring the residual activity of the enzyme in the presence of various concentrations of the drug and 100 µM nitrocefin as reporter substrate; the corrected Ki (considered the observed or apparent Km) value was finally determined using equation 2: The kinetic parameters of wild-type LRA-5 and its double substituted variant LRA-5^Y69Q/V166E are shown in Table 3. […] This behavior is expected considering that this variant lacks Glu166, which is essential to orient the deacylation water molecule during the regeneration stage of the active site. The exceptions were nitrocefin and, strikingly, cefepime. This behavior deserves more in-depth analysis. […] Overnight cultures of recombinant E. coli BL21(DE3) cells expressing wild-type LRA-5 and LRA-5^Y69Q/V166E were diluted (1/50) in 500 mL Lysogeny Broth (LB) supplemented with 30 µg/mL kanamycin and grown at 37°C until 0.6–0.8 OD units (λ = 600 nm) was reached. At this point, 1 mM isopropyl β-D-thiogalactopyranoside (IPTG) was added, and cultures were resumed for growing overnight at 20°C (200 rpm stirring). Then, cell pellets were obtained after centrifugation at 8,000 rpm for 20 min (4°C) in a Sorvall RC-5C (GS3 rotor) and resuspended in 20 mM Tris buffer (pH 7.5) + 500 mM NaCl (buffer A). Crude extracts were obtained by ultrasonic disruption (9 cycles of 5 min, 40% potency, 20 pulses/min, on ice bath) and clarified by centrifugation at 10,000 rpm for 20 min (4°C, SS34 rotor). Clarified supernatants were filtrated through 0.45 µm pore-size membranes, and loaded onto 5 mL HisTrap HP affinity columns (GE Healthcare Life Sciences, USA), connected to an ÄKTA-purifier (GE Healthcare, Uppsala, Sweden), and equilibrated with buffer A. The column was extensively washed to remove unbound proteins, and the LRA-5 proteins were eluted using a linear gradient (0%–100%; 1 mL/min flow rate) of buffer B consisting of buffer A + 500 mM imidazole (pH 7.5). Eluted fractions were analyzed by SDS-PAGE in 15% polyacrylamide gels. Fractions containing the pure LRA-5 variants were dialyzed against buffer A, and the histidine tag was removed by thrombin digestion (16 h at 25°C), using 10 U thrombin per mg protein for complete proteolysis, and later by affinity purification using 1 mL HisTrap HP columns (GE Healthcare Life Sciences, USA), following the same conditions as before (the pure LRA-5 is recovered in the pass-through, while the His-tag and any uncleaved fractions remain attached to the column). The protein purity was assessed by Coomassie blue staining on 15% SDS polyacrylamide gels, and protein concentration was determined by UV absorbance at 280 nm and calculated according to the Lambert-Beer law. The fractions of purified enzymes were stored at −80°C for subsequent kinetics and crystallographic assays.

[8] = test system: CC(=O)OCC1=C(C(=O)O)N2C(=O)[C@@H](NC(=O)Cc3cccs3)[C@H]2SC1; assay: purified protein, by the assay type; design: steady-state beta-lactam hydrolysis kinetics with purified LRA-5; Km (apparent Km via nitrocefin competition for poor substrates); details: pH 7.5
Description: as §1

[9] = test system: CO/N=C(\C(=O)N[C@@H]1C(=O)N2C(C(=O)O)=C(CSc3nc(=O)c(=O)[nH]n3C)CS[C@H]12)c1csc(N)n1; assay: purified protein, by the assay type; design: steady-state beta-lactam hydrolysis kinetics with purified LRA-5; Km (apparent Km via nitrocefin competition for poor substrates); details: pH 7.5
Description: as §1

[10] = test system: C[C@H]1[C@H](NC(=O)/C(=N\OC(C)(C)C(=O)O)c2csc(N)n2)C(=O)N1S(=O)(=O)O; assay: purified protein, by the assay type; design: steady-state beta-lactam hydrolysis kinetics with purified LRA-5; Km (apparent Km via nitrocefin competition for poor substrates); details: pH 7.5
Description: as §1

[11] = test system: CC1(C)S[C@@H]2[C@H](NC(=O)[C@H](N)c3ccccc3)C(=O)N2[C@H]1C(=O)O; assay: purified protein, by the assay type; design: steady-state beta-lactam hydrolysis kinetics with purified LRA-5; Km (apparent Km via nitrocefin competition for poor substrates); details: pH 7.5
Description: as §1

[12] = test system: CO/N=C(\C(=O)N[C@@H]1C(=O)N2C(C(=O)[O-])=C(C[N+]3(C)CCCC3)CS[C@H]12)c1csc(N)n1; assay: steady-state hydrolysis kinetics with pure enzyme (Km), no-enzyme control; type: biochemical, uncultured bacterium BLR5
Excerpt: steady-state hydrolysis kinetics with pure enzyme (Km), no-enzyme control on LRA-5 | The exceptions were nitrocefin and, strikingly, cefepime.

LRA-5 = target: T1, LRA-5 (uncultured bacterium BLR5, UniProt B5L5W7); assay: biochemical; design: time-dependent inactivation of purified LRA-5 by clavulanate, 100 uM nitrocefin as reporter substrate; details: wild-type LRA-5
T1 construct: gene blaLRA-5
T1 sequence (B5L5W7 entry or part of it): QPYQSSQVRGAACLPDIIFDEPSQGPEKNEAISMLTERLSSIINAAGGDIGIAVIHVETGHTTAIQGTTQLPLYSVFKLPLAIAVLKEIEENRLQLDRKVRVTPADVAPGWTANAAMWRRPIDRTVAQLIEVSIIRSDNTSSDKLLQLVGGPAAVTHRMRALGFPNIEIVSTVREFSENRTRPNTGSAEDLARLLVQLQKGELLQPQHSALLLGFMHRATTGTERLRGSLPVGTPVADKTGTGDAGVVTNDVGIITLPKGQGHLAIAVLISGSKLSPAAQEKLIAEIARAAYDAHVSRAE
Description: For irreversible inhibitors like clavulanic acid, the rate constant of inactivation, kinact, was measured directly by time-dependent inactivation of LRA-5 variants using a fixed concentration of enzyme and 100 µM nitrocefin as reporter and increasing concentrations of the inhibitor. The observed rate constant for inactivation (kobs) was determined by nonlinear least-squares fitting of the data using equation 3, as described elsewhere ([42]). […] This behavior is not entirely striking, as it may be related to the fact that the absence of Glu166 in the wild-type variant could still favor the inhibition of clavulanate, due to the absence of the water molecule that normally “competes” with inhibitors during acylation ([29]). Overnight cultures of recombinant E. coli BL21(DE3) cells expressing wild-type LRA-5 and LRA-5^Y69Q/V166E were diluted (1/50) in 500 mL Lysogeny Broth (LB) supplemented with 30 µg/mL kanamycin and grown at 37°C until 0.6–0.8 OD units (λ = 600 nm) was reached. […] Eluted fractions were analyzed by SDS-PAGE in 15% polyacrylamide gels. […] The protein purity was assessed by Coomassie blue staining on 15% SDS polyacrylamide gels, and protein concentration was determined by UV absorbance at 280 nm and calculated according to the Lambert-Beer law. […]

Q: How did the Km [1] turn out when “LRA-5^Y69Q/V166E (uncultured bacterium BLR5; V199E/Y100Q)” was run?
A: Its Km is 3.0 ± 0.1 µM.

Q: And the kcat [1]?
A: Its kcat is 0.006 ± 0.0002 s⁻¹.

Q: And the kcat/Km [1]?
A: The kcat/Km was 1920 ± 86 M⁻¹ s⁻¹.

Q: What about the Km [2] of the same compound?
A: The Km was 32 ± 4 µM.

Q: And the kcat [2]?
A: The kcat was 4.8 ± 0.3 s⁻¹.

Q: And the kcat/Km [2]?
A: Its kcat/Km is 150000 ± 21000 M⁻¹ s⁻¹.

Q: And the Km [3]?
A: The Km was 14 ± 3 µM.

Q: What about the kcat [3] of the same compound?
A: Its kcat is 0.025 ± 0.001 s⁻¹.

Q: And the kcat/Km [3]?
A: Its kcat/Km is 1780 ± 389 M⁻¹ s⁻¹.

Q: What about the Km [4] of the same compound?
A: Its Km is 29 ± 9 µM.

Q: What about the kcat [4] of the same compound?
A: The kcat was 0.107 ± 0.01 s⁻¹.

Q: And the kcat/Km [4]?
A: Its kcat/Km is 3690 ± 1200 M⁻¹ s⁻¹.

Q: And the Km [5]?
A: The Km was 5.0 ± 0.6 µM.

Q: And the kcat [5]?
A: The kcat was 0.003 ± 0.0007 s⁻¹.

Q: And the kcat/Km [5]?
A: Its kcat/Km is 600 ± 157 M⁻¹ s⁻¹.

Q: What about the Km [6] of the same compound?
A: The Km was 4.0 ± 0.2 µM.

Q: And the kcat [6]?
A: Its kcat is 0.002 ± 0.0006 s⁻¹.

Q: What about the kcat/Km [6] of the same compound?
A: Its kcat/Km is 500 ± 152 M⁻¹ s⁻¹.

Q: Which results are given for LRA-5 (uncultured bacterium BLR5)?
A: Km [7]: 8 ± 2 µM; kcat [7]: 0.045 ± 0.001 s⁻¹; kcat/Km [7]: 5600 ± 1400 M⁻¹ s⁻¹; Km [8]: 35 ± 4 µM; kcat [8]: 0.005 ± 0.0008 s⁻¹; kcat/Km [8]: 143 ± 28 M⁻¹ s⁻¹; Km [9]: 11 ± 2 µM; kcat [9]: 3.6e-06 ± 6e-07 s⁻¹; kcat/Km [9]: 0.32 ± 0.08 M⁻¹ s⁻¹; kcat [10]: 2e-05 ± 3e-06 s⁻¹; kcat/Km [10]: < 0.02 M⁻¹ s⁻¹; Km [11]: 65 ± 13 µM; kcat [11]: 0.01 ± 0.002 s⁻¹; kcat/Km [11]: 154 ± 44 M⁻¹ s⁻¹; Km [12]: 10.0 ± 0.5 µM; kcat [12]: 0.02 ± 0.006 s⁻¹; kcat/Km [12]: 2000 ± 100 M⁻¹ s⁻¹

Q: What does the source list for `O=C(O)[C@H]1/C(=C/CO)O[C@@H]2CC(=O)N21` [Clavulanate]?
A: kinact (LRA-5; read-out: LRA-5 (wild-type) / kcat (s^−1) / NH / kinact): 0.005 ± 0.0001 s⁻¹; kinact/KI (LRA-5; read-out: LRA-5 (wild-type) / kcat/Km (M^−1 s^−1) / ND / kinact/K): 833 ± 102 M⁻¹ s⁻¹
